This is an account of results in article PMC1838920.

The test addresses T1, His6-CIII (bacteriophage lambda CIII) (bacteriophage lambda), P03044.
T1 chain: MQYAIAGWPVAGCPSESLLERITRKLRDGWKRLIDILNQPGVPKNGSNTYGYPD
The test is described as follows: cross-linking; 10 µM His6-CIII in PBS with 0.1 mg/ml BSA at 42°C, 0.25% glutaraldehyde for 1 or 5 minutes, stopped by 200 mM glycine; NuPAGE and western blot against the His6 tag. Conditions: remark: other sources report otherwise. For orientation: In western blotting, separated proteins are transferred to a membrane and probed.

A value given as a limit tells only on which side of the number the result lay.

B1: His6-CIII (bacteriophage lambda CIII), P03044 1-54 (natural protein)
chain: T1 chain
By stoichiometry N is commonly meant a count of units in the complex or per binding partner. On to B1, for which the stoichiometry N is under 12.
